Sequences and labels used below:
B1: MAA peptide (peptide)
peptide: MAATEISVL
notes: synthetic 9-mer
B2: VLE peptide (peptide)
peptide: VLEEEVELV
notes: synthetic 9-mer
B3: VLT peptide (peptide)
peptide: VLTVSNSNV
notes: synthetic 9-mer
B4: ALE peptide (peptide)
peptide: ALEENVMVA
notes: synthetic 9-mer
B5: ILQ peptide (peptide)
peptide: ILQKHGENV
notes: synthetic 9-mer
B6: KLA peptide (peptide)
peptide: KLAVSLAET
notes: synthetic 9-mer
B7: SVLE peptide (peptide)
peptide: SVLEEEVEL
notes: synthetic 9-mer
B8: HAL peptide (peptide)
peptide: HALEENVMV
notes: synthetic 9-mer
B9: VLS peptide (peptide)
peptide: VLSEQFTKI
notes: synthetic 9-mer
B10: YAS peptide (peptide)
peptide: YASRDTYKL
notes: synthetic 9-mer
B11: SLAE peptide (peptide)
peptide: SLAETAGLI
notes: synthetic 9-mer
B12: RMM peptide (peptide)
peptide: RMMLVSAWL
notes: synthetic 9-mer
B13: GLI peptide (peptide)
peptide: GLIPTVLTLK
notes: synthetic 10-mer
B14: TVY peptide (peptide)
peptide: TVYKCSKCGK
notes: synthetic 10-mer
B15: NTH peptide (peptide)
peptide: NTHTGTRPYK
notes: synthetic 10-mer
B16: KQL peptide (peptide)
peptide: KQLLNAHFRK
notes: synthetic 10-mer
B17: AAA peptide (peptide)
peptide: AAAEEASTTK
notes: synthetic 10-mer
B18: RMS peptide (peptide)
peptide: RMSSFNRHMK
notes: synthetic 10-mer
B19: CSY peptide (peptide)
peptide: CSYASRDTYK
notes: synthetic 10-mer
B20: ASG peptide (peptide)
peptide: ASGKGRRTRK
notes: synthetic 10-mer
B21: GTM peptide (peptide)
peptide: GTMKIHILQK
notes: synthetic 10-mer
B22: SVL peptide (peptide)
peptide: SVLSEQFTK
notes: synthetic 9-mer
B23: TVL peptide (peptide)
peptide: TVLTLKASFK
notes: synthetic 10-mer
B24: KLLF peptide (peptide)
peptide: KLLFIGTIK
notes: synthetic 9-mer

Experimental findings from US20170298109A1 (SAPPORO MEDICAL UNIVERSITY, published 2017) are described below.

One test concerns the target T1, HLA-A*02:01 with β2-microglobulin (human).
T1 construct: Soluble recombinant HLA used in the folding test and in tetramer reagents; also called HLA-A2
As to the kind of experiment: folding test: HLA-monomer formation from HLA, β2-microglobulin and peptide, gel filtration. On the technique in general: In gel filtration, larger molecules generally elute earlier.
For B1, the binding result is recorded as “no binding (tested: 30 µM peptide)”.

The target in a further test is T1, HLA-A*02:01 with β2-microglobulin. Nature of the test: folding test: HLA-monomer formation, gel filtration.
Regarding B2, the binding result is recorded as “binds”. Turning to B3, the binding result is recorded as “binds”. On the same count and under the same terms, next, B4: “binds”; B5: “binds”; B6: “binds”. Take B7: the binding result was “binds”. On the same count and under the same terms, next, B8: “binds”; B9: “binds”. Take B10: the binding result was “binds”. Consider B11, for which the binding result is “binds”.

The target of a further test is HLA-A*24:02 with β2-microglobulin (human). Nature of the test: HLA tetramer reagent made of the RMM peptide and the HLA type, staining of induced CTLs, flow cytometry.
As to B12, the binding result is recorded as “binds”.

Another test deals with T1, HLA-A*02:01 with β2-microglobulin. The description is as above.
As for B12, the binding result was “binds”.

The next test concerns the target T2, HLA-A*11:01 with β2-microglobulin (human).
T2 construct: Soluble recombinant HLA used in the folding test and in tetramer reagents
As to the kind of experiment: folding test: HLA-monomer formation after 1, 3 and 7 days, gel filtration.
On to B13, for which the binding result is reported as “binds”.

Consider B14, for which the binding result was “binds”. Consider B15, for which the binding result was “binds”.

Take B16: the binding result was “binds”. As to B17, the binding result is given as “binds”. The same measure, in the same setting: next, B18: “binds”; B19: “binds”; B20: “binds”. As to B21, the binding result is given as “binds”. In the case of B22, the binding result is “binds”. Still for that read-out and setting: as for B23, the entry is “binds”; as for B24, “binds”.
